Measured values: US20240318157A1, “Neurotensin Variants And Tagged Proteins Comprising Neurotensin Or Sortilin Propeptide” (Amicus Therapeutics, Inc., priority 2021, published 2024)

Molecular target: T1, extracellular soluble domain of sortilin, residues 78-755 (Homo sapiens, UniProt Q99523)
T1 construct: the extracellular soluble domain of sortilin, residues 78-755, was expressed in Expi293F cell line; made in house; host or cells: Expi293F
Test: microplate binding assay, enzymic activity of sortilin-bound GAA tagged protein
Description: FIG. 2. α-D-glucopyranoside activity of sortilin-bound GAA tagged protein. Extracellular soluble sortilin domain with a C-terminal TwinStrep tag for immobilized on a 96-well microplate. […] A fluorogenic 4-methylumbelliferyl-α-D-glucopyranoside substrate was used to measure α-D-glucopyranoside activity of the sortilin-bound tagged proteins.
For a microplate binding assay, the extracellular soluble domain of sortilin, residues 78-755, was expressed in Expi293F cell line (using Expi293 Expression System; Thermo Fisher, A14635) with a C-terminal TwinStrep affinity tag. Harvests were collected after 5 days. Conditioned media was incubated with StrepTactin XT coated microplates (IBA, 2-4101-001) for 1 hour to immobilize sortilin to the plates. After several washes, wells coated with sortilin were incubated with varying doses of NT-GAA, GAA-NT or GAA diluted into PBS for 30 minutes. The unbound protein was then washed away. The α-D-glucopyranoside activity of the bound GAA tagged protein was measured using a fluorogenic substrate, 4-methylumbelliferyl-α-D-glucopyranoside, at pH 4.8. […] The inflection point in both binding curves indicates bivalency of sortilin for neurotensin.

α-D-glucopyranoside activity of sortilin-bound protein (immobilized sortilin, 30 minutes in PBS, 4-methylumbelliferyl-α-D-glucopyranoside, pH 4.8, FIG. 2): no α-D-glucopyranoside activity
binding to sortilin (inferred from absence of activity in sortilin-coated wells, FIG. 2): did not bind to sortilin
Substance: GAA: GAA with no NT tag; lysosomal alpha-glucosidase (RefSeq: NM_000152.5) [reference compound]
